Experimental data from the supplement of paper PMC12667976.
± gives the standard error.

B1: library; numbered along this chain (parent)
chain: MATDAALRRLLRLHRTEIAVAVDSAFPLLHALADHDVVPEDKFQETLHLKEKEGCPQAFHALLSWLLTQDSTAILDFWRVLFKDYNLERYGRLQPILDSFPKDVDLSQPRKGRKPPAVPKALVPPPRLPTKRKASEEARAAAPAALTPRGTASPGSQLKAKPPKKPESSAEQQRLPLGNGIQTMSASVQRAVAMSSGDVPGARGAVEGILIQQVFESGGSKKCIQVGGEFYTPSKFEDSGSGKNKARSSSGPKPLVRAKGAQGAAPGGGEARLGQQGSVPAPLALPSDPQLHQKNEDECAVCRDGGELICCDGCPRAFHLACLSPPLREIPSGTWRCSSCLQATVQEVQPRAEEPRPQEPPVETPLPPGLRSAGEEVRGPPGEPLAGMDTTLVYKHLPAPPSAAPLPGLDSSALHPLLCVGPEGQQNLAPGARCGVCGDGTDVLRCTHCAAAFHWRCHFPAGTSRPGTGLRCRSCSGDVTPAPVEGVLAPSPARLAPGPAKDDTASHEPALHRDDLESLLSEHTFDGILQWAIQSMARPAAPFPS

Variants of: B1
Assay: AIRE transcriptional activation functional score (insulin promoter-GFP; nonsense median 0, synonymous median 1) (normalised score); higher = higher AIRE activity (more reporter activation)
Conditions: with insulin promoter-GFP reporter in HEK293
Protocol: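 Deep mutational scan of full-length human AIRE (codon-optimized cDNA, DT-POPCode NNN libraries over three regions) integrated at a Bxb1 landing pad in HEK293 cells carrying an insulin core promoter-GFP reporter at a Flp-In site. Cells were sorted for the top 10% GFP about 14 days after transfection. Variant frequency log-ratios (select vs non-select, TileSeq) were rescaled so that the nonsense median is 0 and the synonymous median is 1, then averaged over biological replicates.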

| Variant | AIRE transcriptional activation functional score |
| --- | --- |
| P125G | 1.08 ± 0.39 |
| V420S | 1.07 ± 0.48 |
| D41C | 1.39 ± 0.13 |
| Q358E | 1.19 ± 0.069 |
| P384K | 0.962 ± 0.21 |
| Q275G | 0.894 ± 0.33 |
| G269I | 1.06 ± 0.24 |
| P331C | 1 ± 0.14 |
| P109D | 0.988 ± 0.12 |
| P109H | 1.28 ± 0.19 |
| P109N | -1.94 ± 0.83 |
| P109Y | 0.732 ± 0.35 |
| S99C | 1.07 ± 0.23 |
| S506H | 1.08 ± 0.091 |
| L418N | 1.02 ± 0.075 |
| L418P | 0.93 ± 0.25 |
| L418F | 1.42 ± 0.26 |
| K52Q | -0.353 ± 0.24 |
| P400T | 0.851 ± 0.33 |
| F26C | -0.0618 ± 0.14 |
| G424D | 1 ± 0.11 |

| Variant | AIRE transcriptional activation functional score |
| --- | --- |
| V20D | 0.0604 ± 0.26 |
| Q172A | 0.74 ± 0.7 |
| G219T | 1.01 ± 0.28 |
| Q182V | -0.0151 ± 0.32 |
| P361Q | 1.18 ± 0.19 |
| L81A | -0.165 ± 0.28 |
| L81H | -1.4 ± 0.2 |
| K395L | 1.38 ± 0.15 |
| T68V | 0.624 ± 0.46 |
| E167K | 0.721 ± 0.74 |
| G387R | 1.1 ± 0.41 |
| D70K | 2.05 ± 0.09 |
| P148R | 0.931 ± 0.74 |
| S187L | 0.063 ± 0.27 |
| P315S | 1.14 ± 0.25 |
| P315A | 0.558 ± 0.45 |
| P315C | 0.985 ± 0.44 |
| P499L | 1.11 ± 0.32 |
| P499C | 0.764 ± 0.15 |
| D84A | 0.125 ± 0.24 |
| D84H | 0.341 ± 0.18 |

| Variant | AIRE transcriptional activation functional score |
| --- | --- |
| P490S | 1.11 ± 0.2 |
| G421W | 1.43 ± 0.13 |
| P116D | 0.468 ± 0.33 |
| P365Y | 1.75 ± 0.063 |
| E17P | -0.151 ± 0.34 |
| H60M | 0.414 ± 0.035 |
| A58N | -1.13 ± 0.62 |
| A58D | 0.158 ± 0.1 |
| F236Y | 0.564 ± 0.59 |
| L291I | 0.864 ± 0.069 |
| A6L | 1.45 ± 0.73 |
| P405Q | 0.685 ± 0.17 |
| P325K | 1.55 ± 0.083 |
| P325L | 1.12 ± 0.29 |
| E359I | 1.14 ± 0.21 |
| I533T | 0.516 ± 0.061 |
| Q189M | -0.352 ± 0.059 |
| S412A | 1.09 ± 0.11 |
| G91E | 1.71 ± 0.32 |
| L13M | 1.23 ± 0.27 |
| C299A | 0.615 ± 0.18 |

| Variant | AIRE transcriptional activation functional score |
| --- | --- |
| C434F | 0.223 ± 0.047 |
| L146P | 0.73 ± 0.35 |
| R79C | 0.278 ± 0.2 |
| P233A | 1.09 ± 0.13 |
| P367I | 1.46 ± 0.18 |
| Q108H | -0.231 ± 0.16 |
| Q108K | 0.479 ± 0.44 |
| Q108E | 1.66 ± 0.33 |
| L470I | 0.814 ± 0.23 |
| V80F | 0.527 ± 0.47 |
| P416I | 0.0784 ± 0.053 |
| E353H | 0.837 ± 0.14 |
| P162I | 1.97 ± 0.41 |
| S338A | 0.683 ± 0.25 |
| P101L | 0.222 ± 0.29 |
| P509R | 0.805 ± 0.16 |
| H512W | 1.06 ± 0.066 |
| A461Y | 1.16 ± 0.12 |
| G477A | 0.739 ± 0.25 |
| A140V | 1.35 ± 0.35 |
| A489R | 0.51 ± 0.42 |
